Assay results: paper PMC6015067

Tests used:
[1] = biological target: LIM protein Ajuba (human (endogenous in HTC75)) (UniProt Q96IF1); test: co-IP; IP-Western of endogenous proteins from HTC75 total extracts (also IMR90) with Ajuba serum or antibodies to RPA70, RPA32 or RPA14; cells untreated, treated with 2 mM hydroxyurea for 24 hr (association reduced) or synchronized by double thymidine block and released for 2 hr (no perceptible effect)
[2] = biological target: His-tagged full-length Ajuba (UniProt Q96IF1); test: pull-down; His-tag pull-down on Ni-NTA beads of proteins co-translated in one rabbit reticulocyte lysate reaction with 35S-methionine; beads blocked with 2% BSA, 30 minutes at room temperature, TBST pH 8.0, six washes; autoradiography, signal normalized to input and number of methionines

Chain of RPA70-OB½ABC (P27694 234-612): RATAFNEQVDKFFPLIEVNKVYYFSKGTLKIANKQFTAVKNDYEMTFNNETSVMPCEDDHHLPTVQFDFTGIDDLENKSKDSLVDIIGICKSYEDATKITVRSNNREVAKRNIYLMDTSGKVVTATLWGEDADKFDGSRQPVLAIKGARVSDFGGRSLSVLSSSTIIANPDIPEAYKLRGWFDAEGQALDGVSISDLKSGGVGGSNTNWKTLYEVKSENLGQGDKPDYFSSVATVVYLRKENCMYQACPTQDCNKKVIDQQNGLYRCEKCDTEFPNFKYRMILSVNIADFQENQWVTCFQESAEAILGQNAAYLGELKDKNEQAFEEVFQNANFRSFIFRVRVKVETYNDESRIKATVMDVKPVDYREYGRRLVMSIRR

Substance	pull down efficiency (% of total RPA in association with Ajuba) [1] [%]	pull down relative to full-length RPA70 (set at 100%) [2] [%]
total RPA	2 to 5	–
RPA70-OB½ABC (from UniProt P27694 234-612) (domain or fragment)	–	58.7
